According to article PMC9270245, “A metal ion–dependent conformational switch modulates activity of the Plasmodium M17 aminopeptidase” (The Journal of Biological Chemistry, 2022):
Numbering of substitutions follows the chain as printed. Names may count otherwise.

Target: the molecule itself
Assay: SEC; analytical gel filtration, 100 ug purified protein, Superdex S200 Increase 10/300, 50 mM Hepes (pH 8.0), 300 mM NaCl, 1 mM MnCl2; approximate molecular weight by interpolation of a standard curve

B1: M17 aminopeptidase from Plasmodium falciparum, wildtype (truncated, amino acids 85-605) (enzyme, UniProt Q8IL11 85-605, looked up)
chain: ASEVPQVVSLDPTSIPIEYNTPIHDIKVQVYDIKGGCNVEEGLTIFLVNNPGKENGPVKISSKVNDKNVSEFLKDENMEKFNVKLGTSKHFYMFNDNKNSVAVGYVGCGSVADLSEADMKRVVLSLVTMLHDNKLSKLTVVFEINVDKNLFRFFLETLFYEYMTDERFKSTDKNVNMEYIKHLGVYINNADTYKEEVEKARVYYFGTYYASQLIAAPSNYCNPVSLSNAAVELAQKLNLEYKILGVKELEELKMGAYLSVGKGSMYPNKFIHLTYKSKGDVKKKIALVGKGITFDSGGYNLKAAPGSMIDLMKFDMSGCAAVLGCAYCVGTLKPENVEIHFLSAVCENMVSKNSYRPGDIITASNGKTIEVGNTDAEGRLTLADALVYAEKLGVDYIVDIATLTGAMLYSLGTSYAGVFGNNEELINKILNSSKTSNEPVWWLPIINEYRATLNSKYADINNISSSVKASSIVASLFLKEFVQNTAWAHIDIAGVSWNFKARKPKGFGVRLLTEFVLNDAL
notes: Homohexamer, a dimer of trimers; also called PfA-M17; wildtype PfA-M17; source: E. coli BL21(DE3), autoinduction, purified (nickel-nitrilotriacetic acid agarose, gel filtration on Superdex S200)
  stoichiometry N: 6

B2: PfA-M17 (A387P) (enzyme)
chain: B1 chain with A303P
notes: M17 aminopeptidase of Plasmodium falciparum, amino acids 85-605, with a proline in place of Ala387 by site-directed mutagenesis (PCR); the PDB entries hold the wildtype parent; source: E. coli BL21(DE3), autoinduction, purified (nickel-nitrilotriacetic acid agarose, gel filtration on Superdex S200)
  stoichiometry N: 6
